{"source": "IntAct's records for PubMed 23957209", "parents": {"B1": {"name": "NADPH oxidase organizer 1 (Homo sapiens), Q8NFA2-3 (parent)", "chain": "MAGPRYPVSVQGAALVQIKRLQTFAFSVRWSDGSDTFVRRSWDEFRQLKKTLKETFPVEAGLLRRSDRVLPKLLDAPLLGRVGRTSRGLARLQLLETYSRRLLATAERVARSPTITGFFAPQPLDLEPALPPGSRVILPTPEEQPLSRAAGRLSIHSLEAQSLRCLQPFCTQDTRDRPFQAQAQESLDVLLRHPSGWWLVENEDRQTAWFPAPYLEEAAPGQGREGGPSLGSSGPQFCASRAYESSRADELSVPAGARVRVLETSDRGWWLCRYGDRAGLLPAVLLRPEGLGALLSGTGFRGGDDPAGEARGFPEPSQATAPPPTVPTRPSPGAIQSRCCTVTRRALERRPRRQGRPRGCVDSVPHPTTEQ", "partner": "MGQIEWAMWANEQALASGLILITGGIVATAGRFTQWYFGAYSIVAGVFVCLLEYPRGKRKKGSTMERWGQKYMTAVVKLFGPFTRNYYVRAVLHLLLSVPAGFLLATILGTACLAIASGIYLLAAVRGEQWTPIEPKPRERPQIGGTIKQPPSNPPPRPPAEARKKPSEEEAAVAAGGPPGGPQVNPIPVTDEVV"}, "B2": {"name": "Cytochrome b-245 light chain (Homo sapiens), P13498 (parent)", "chain": "B1 partner", "partner": "B1 chain"}, "B3": {"name": "NADPH oxidase organizer 1 (Homo sapiens), Q8NFA2-3 (parent)", "chain": "B1 chain", "partner": "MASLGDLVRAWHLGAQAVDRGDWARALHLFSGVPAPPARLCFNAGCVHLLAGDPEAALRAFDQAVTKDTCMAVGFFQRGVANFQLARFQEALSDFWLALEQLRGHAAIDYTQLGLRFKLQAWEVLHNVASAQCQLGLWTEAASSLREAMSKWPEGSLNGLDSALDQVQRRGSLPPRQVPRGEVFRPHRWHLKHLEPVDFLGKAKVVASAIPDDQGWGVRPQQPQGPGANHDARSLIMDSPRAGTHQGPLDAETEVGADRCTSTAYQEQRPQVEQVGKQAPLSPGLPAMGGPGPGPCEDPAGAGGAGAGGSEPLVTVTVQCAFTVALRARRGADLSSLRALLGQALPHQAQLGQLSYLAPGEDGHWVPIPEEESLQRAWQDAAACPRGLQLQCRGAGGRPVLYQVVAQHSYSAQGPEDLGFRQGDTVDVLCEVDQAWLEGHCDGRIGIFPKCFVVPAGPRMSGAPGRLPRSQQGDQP"}, "B4": {"name": "NADPH oxidase activator 1 (Homo sapiens), Q86UR1 (parent)", "chain": "B3 partner", "partner": "B1 chain"}, "B5": {"name": "NADPH oxidase organizer 1 (Homo sapiens), Q8NFA2-3 (parent)", "chain": "B1 chain", "partner": "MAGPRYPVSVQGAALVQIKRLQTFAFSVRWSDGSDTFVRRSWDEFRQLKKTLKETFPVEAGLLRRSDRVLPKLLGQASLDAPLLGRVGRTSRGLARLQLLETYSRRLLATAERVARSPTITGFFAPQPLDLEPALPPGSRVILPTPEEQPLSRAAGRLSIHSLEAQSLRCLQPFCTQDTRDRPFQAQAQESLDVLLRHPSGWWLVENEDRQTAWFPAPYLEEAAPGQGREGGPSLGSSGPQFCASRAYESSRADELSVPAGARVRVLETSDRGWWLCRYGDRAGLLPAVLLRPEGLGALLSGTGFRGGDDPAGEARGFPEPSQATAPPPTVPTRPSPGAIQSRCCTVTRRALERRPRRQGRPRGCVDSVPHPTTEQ"}}}
{"variants_of": "B1", "details": "with cy24a_human CYBA, P13498"}
{"variant": "MAGPRYPVSVQGAALVQIKRLQTFAFSVRWSDGSDTFVRRSWDEFRQLKKTLKETFPVEAGLLRRSDRVLPKLLDAPLLGRVGRTSRGLARLQLLETYSRRLLATAERVARSPTITGFFAPQPLDLEPALPPGSRVILPTPEEQPLSRAAGRLSIHSLEAQSLRCLQPFCTQDTRDRPFQAQAQESLDVLLRHPAGWWLVENEDRQTAWFPAPYLEEAAPGQGREGGPSLGSSGPQFCASRAYESSRADELSVPAGARVRVLETSDRGWWLCRYGDRAGLLPAVLLRPEGLGALLSGTGFRGGDDPAGEARGFPEPSQATAPPPTVPTRPSPGAIQSRCCTVTRRALERRPRRQGRPRGCVDSVPHPTTEQ", "note": "[S195A]", "effect of a mutation on the interaction": "decreasing interaction"}
{"variants_of": "B1", "details": "with cy24a_human CYBA"}
{"variant": "MAGPRYPVSVQGAALVQIKRLQTFAFSVRWSDGSDTFVRRSWDEFRQLKKTLKETFPVEAGLLRRSDRVLPKLLDAPLLGRVGRTSRGLARLQLLETYSRRLLATAERVARSPTITGFFAPQPLDLEPALPPGSRVILPTPEEQPLSRAAGRLSIHSLEAQSLRCLQPFCTQDTRDRPFQAQAQESLDVLLRHPEGWWLVENEDRQTAWFPAPYLEEAAPGQGREGGPSLGSSGPQFCASRAYESSRADELSVPAGARVRVLETSDRGWWLCRYGDRAGLLPAVLLRPEGLGALLSGTGFRGGDDPAGEARGFPEPSQATAPPPTVPTRPSPGAIQSRCCTVTRRALERRPRRQGRPRGCVDSVPHPTTEQ", "note": "[S195E]", "effect of a mutation on the interaction": "decreasing interaction"}
{"variants_of": "B1", "details": "with cy24a_human CYBA", "remark": "another data set of the same source"}
{"variant": "MAGPRYPVSVQGAALVQIKRLQTFAFSVRWSDGSDTFVRRSWDEFRQLKKTLKETFPVEAGLLRRSDRVLPKLLDAPLLGRVGRTSRGLARLQLLETYSRRLLATAERVARSPTITGFFAPQPLDLEPALPPGSRVILPTPEEQPLSRAAGRLSIHSLEAQSLRCLQPFCTQDTRDRPFQAQAQESLDVLLRHPDGWWLVENEDRQTAWFPAPYLEEAAPGQGREGGPSLGSSGPQFCASRAYESSRADELSVPAGARVRVLETSDRGWWLCRYGDRAGLLPAVLLRPEGLGALLSGTGFRGGDDPAGEARGFPEPSQATAPPPTVPTRPSPGAIQSRCCTVTRRALERRPRRQGRPRGCVDSVPHPTTEQ", "note": "[S195D]", "effect of a mutation on the interaction": "decreasing interaction"}
{"variants_of": "B2", "details": "with NOXO1, Q8NFA2-3"}
{"variant": "MGQIEWAMWANEQALASGLILITGGIVATAGRFTQWYFGAYSIVAGVFVCLLEYPRGKRKKGSTMERWGQKYMTAVVKLFGPFTRNYYVRAVLHLLLSVPAGFLLATILGTACLAIASGIYLLAAVRGEQWTPIEPKPRERPQIGGTIKQPPSNPQPRPPAEARKKPSEEEAAVAAGGPPGGPQVNPIPVTDEVV", "note": "[P156Q]", "effect of a mutation on the interaction": "disrupting interaction"}
{"variants_of": "B3", "details": "with noxa1_human NOXA1, Q86UR1"}
{"variant": "MAGPRYPVSVQGAALVQIKRLQTFAFSVRWSDGSDTFVRRSWDEFRQLKKTLKETFPVEAGLLRRSDRVLPKLLDAPLLGRVGRTSRGLARLQLLETYSRRLLATAERVARSPTITGFFAPQPLDLEPALPPGSRVILPTPEEQPLSRAAGRLSIHSLEAQSLRCLQPFCTQDTRDRPFQAQAQESLDVLLRHPSGWWLVENEDRQTAWFPAPYLEEAAPGQGREGGPSLGSSGPQFCASRAYESSRADELSVPAGARVRVLETSDRGWWLCRYGDRAGLLPAVLLRPEGLGALLSGTGFRGGDDPAGEARGFPEPSQATAPPPTVPTRPSPGAIQSRCCTVARRALERRPRRQGRPRGCVDSVPHPTTEQ", "note": "[T343A]", "effect of a mutation on the interaction": "disrupting interaction"}
{"variants_of": "B3", "details": "with noxa1_human NOXA1, Q86UR1", "remark": "another data set of the same source"}
{"variant": "MAGPRYPVSVQGAALVQIKRLQTFAFSVRWSDGSDTFVRRSWDEFRQLKKTLKETFPVEAGLLRRSDRVLPKLLDAPLLGRVGRTSRGLARLQLLETYSRRLLATAERVARSPTITGFFAPQPLDLEPALPPGSRVILPTPEEQPLSRAAGRLSIHSLEAQSLRCLQPFCTQDTRDRPFQAQAQESLDVLLRHPSGWWLVENEDRQTAWFPAPYLEEAAPGQGREGGPSLGSSGPQFCASRAYESSRADELSVPAGARVRVLETSDRGWWLCRYGDRAGLLPAVLLRPEGLGALLSGTGFRGGDDPAGEARGFPEPSQATAPPPTVPTRPSPGAIQSRCCAVTRRALERRPRRQGRPRGCVDSVPHPTTEQ", "note": "[T341A]", "effect of a mutation on the interaction": "disrupting interaction"}
{"variants_of": "B3", "details": "with noxa1_human NOXA1, Q86UR1", "remark": "another data set of the same source"}
{"variant": "MAGPRYPVSVQGAALVQIKRLQTFAFSVRWSDGSDTFVRRSWDEFRQLKKTLKETFPVEAGLLRRSDRVLPKLLDAPLLGRVGRTSRGLARLQLLETYSRRLLATAERVARSPTITGFFAPQPLDLEPALPPGSRVILPTPEEQPLSRAAGRLSIHSLEAQSLRCLQPFCTQDTRDRPFQAQAQESLDVLLRHPSGWWLVENEDRQTAWFPAPYLEEAAPGQGREGGPSLGSSGPQFCASRAYESSRADELSVPAGARVRVLETSDRGWWLCRYGDRAGLLPAVLLRPEGLGALLSGTGFRGGDDPAGEARGFPEPSQATAPPPTVPTRPSPGAIQSRCCDVTRRALERRPRRQGRPRGCVDSVPHPTTEQ", "note": "[T341D]", "effect of a mutation on the interaction": "increasing interaction"}
{"variants_of": "B3", "details": "with noxa1_human NOXA1, Q86UR1", "remark": "another data set of the same source"}
{"variant": "MAGPRYPVSVQGAALVQIKRLQTFAFSVRWSDGSDTFVRRSWDEFRQLKKTLKETFPVEAGLLRRSDRVLPKLLDAPLLGRVGRTSRGLARLQLLETYSRRLLATAERVARSPTITGFFAPQPLDLEPALPPGSRVILPTPEEQPLSRAAGRLSIHSLEAQSLRCLQPFCTQDTRDRPFQAQAQESLDVLLRHPSGWWLVENEDRQTAWFPAPYLEEAAPGQGREGGPSLGSSGPQFCASRAYESSRADELSVPAGARVRVLETSDRGWWLCRYGDRAGLLPAVLLRPEGLGALLSGTGFRGGDDPAGEARGFPEPSQATAPPPTVPTRPSPGAIQSRCCEVTRRALERRPRRQGRPRGCVDSVPHPTTEQ", "note": "[T341E]", "effect of a mutation on the interaction": "increasing interaction"}
{"variants_of": "B4", "details": "with NOXO1, Q8NFA2-3"}
{"variant": "MASLGDLVRAWHLGAQAVDRGDWARALHLFSGVPAPPARLCFNAGCVHLLAGDPEAALRAFDQAVTKDTCMAVGFFQRGVANFQLARFQEALSDFWLALEQLRGHAAIDYTQLGLRFKLQAWEVLHNVASAQCQLGLWTEAASSLREAMSKWPEGSLNGLDSALDQVQRRGSLPPRQVPRGEVFRPHRWHLKHLEPVDFLGKAKVVASAIPDDQGWGVRPQQPQGPGANHDARSLIMDSPRAGTHQGPLDAETEVGADRCTSTAYQEQRPQVEQVGKQAPLSPGLPAMGGPGPGPCEDPAGAGGAGAGGSEPLVTVTVQCAFTVALRARRGADLSSLRALLGQALPHQAQLGQLSYLAPGEDGHWVPIPEEESLQRAWQDAAACPRGLQLQCRGAGGRPVLYQVVAQHSYSAQGPEDLGFRQGDTVDVLCEVDQARLEGHCDGRIGIFPKCFVVPAGPRMSGAPGRLPRSQQGDQP", "note": "[W436R]", "effect of a mutation on the interaction": "disrupting interaction"}
{"variants_of": "B5", "details": "with noxo1_human NOXO1, Q8NFA2"}
{"variant": "MAGPRYPVSVQGAALVQIKRLQTFAFSVRWSDGSDTFVRRSWDEFRQLKKTLKETFPVEAGLLRRSDRVLPKLLDAPLLGRVGRTSRGLARLQLLETYSRRLLATAERVARSPTITGFFAPQPLDLEPALPPGSRVILPTPEEQPLSRAAGRLSIHSLEAQSLRCLQPFCTQDTRDRPFQAQAQESLDVLLRHPSGRWLVENEDRQTAWFPAPYLEEAAPGQGREGGPSLGSSGPQFCASRAYESSRADELSVPAGARVRVLETSDRGWWLCRYGDRAGLLPAVLLRPEGLGALLSGTGFRGGDDPAGEARGFPEPSQATAPPPTVPTRPSPGAIQSRCCTVTRRALERRPRRQGRPRGCVDSVPHPTTEQ", "note": "[W197R]", "effect of a mutation on the interaction": "disrupting interaction"}
